Reference: article PMC5081367

B1: wild type Lck (WT) [not stated] / receptor for activated C kinase 1 (RACK1), endogenous in NIH3T3 [mouse (endogenous in NIH3T3)] (parent)
chain 1: MGCVCSSNPEDDWMENIDVCENCHYPIVPLDSKISLPIRNGSEVRDPLVTYEGSLPPASPLQDNLVIALHSYEPSHDGDLGFEKGEQLRILEQSGEWWKAQSLTTGQEGFIPFNFVAKANSLEPEPWFFKNLSRKDAERQLLAPGNTHGSFLIRESESTAGSFSLSVRDFDQNQGEVVKHYKIRNLDNGGFYISPRITFPGLHDLVRHYTNASDGLCTKLSRPCQTQKPQKPWWEDEWEVPRETLKLVERLGAGQFGEVWMGYYNGHTKVAVKSLKQGSMSPDAFLAEANLMKQLQHPRLVRLYAVVTQEPIYIITEYMENGSLVDFLKTPSGIKLNVNKLLDMAAQIAEGMAFIEEQNYIHRDLRAANILVSDTLSCKIADFGLARLIEDNEYTAREGAKFPIKWTAPEAINYGTFTIKSDVWSFGILLTEIVTHGRIPYPGMTNPEVIQNLERGYRMVRPDNCPEELYHLMMLCWKERPEDRPTFDYLRSVLDDFFTATEGQYQPQP
chain 2: not shown

Variants of: B1
Experiment: co-immunoprecipitation (IP: RACK1, blot anti-Lck), quantified
Settings: with receptor for activated C kinase 1 (RACK1), NIH3T3 Lck infectants, three independent experiments, mean ± SD, parent: 1, read off a plot

Variant | screen value
chain 1 Y505F | 1
chain 1 R154K Y505F | 0.38
chain 1 W97K Y505F | 0.12
